{
  "source": "patent WO2021212049A2",
  "binders": {"B1": {"name": "mAb 2H04 (antibody)", "chain 1": "EVQLQQSGAELVKPGASVKMSCKASGYTFTSYWITWVKQRPGQGLEWIGDIYPGSGSTKYNEKFRSEATLTVDTSSTTAYMQLSSLTSEDSAVYYCARWDFYGSRTFDYWGQGTTLTVSS", "chain 2": "DIVLTQSPAILSVSPGERVSFSCRASQNIGTIIHWYQQRTNGSPRLLIKYASESVSGIPSRFSGSGSGTDFTLSINSVESEDIADYYCQQSSSWPLTFGAGTKLELK"}},
  "conditions_in_all_cases": "remark: other sources report otherwise",
  "key": {"[1]": {"biological_target": "bacterially derived SARS-CoV RBD (SARS-CoV), P59594", "assay": "BLI, bacterially derived SARS-CoV RBD"}, "[2]": {"biological_target": "T1, untagged SARS-CoV-2 RBD expressed in E. coli BL21(DE3) and oxidatively refolded (RBDWT) (SARS-CoV-2), P0DTC2", "assay": "BLI, RBD expressed in E. coli"}, "[3]": {"biological_target": "T1, untagged SARS-CoV-2 RBD expressed in E. …", "assay": "BLI, RBD expressed in E. coli, 1:1 Langmuir fit"}, "[4]": {"biological_target": "Mammalian SARS-CoV2 RBD (residues 331-524) with C-terminal 6XHis Tag (SARS-CoV-2), P0DTC2", "assay": "ELISA on coated antigen, anti-human IgG-HRP"}},
  "data": [
    {"binder": "B1", "values": [
      {"measurement": "Kd", "setting": "[1]", "value": 1420, "unit": "nM"},
      {"measurement": "half-life", "setting": "[1]", "value": 25.8, "unit": "s"},
      {"measurement": "half-life", "setting": "[2]", "value": 76.2, "unit": "s"},
      {"measurement": "Kd", "setting": "[3]", "value": 40, "unit": "nM"},
      {"measurement": "minimum positive concentration", "setting": "[4]", "value": "< 5", "unit": "µg/mL"}
    ]}
  ]
}
